Our source for the binding result and Kd values is publication PMC5025757, “Sequences flanking the core-binding site modulate glucocorticoid receptor structure and activity”.

Data set [1] has as its target T1, GR DBD wild type (rat, UniProt P06536 440-525). Kind of data set: NMR (1D imino proton titration); 25 C; EMSA: 20 mM Tris pH 7.5, 2 mM MgCl2, 1 mM EDTA, 10% glycerol, 0.3 mg/ml BSA, 4 mM DTT, 0.05 ug/ul dIdC, 1.25 nM DNA, 30 min; NMR: 20 mM Na phosphate, 100 mM NaCl, 1 mM DTT, pH 6.7, 5% D2O, imino titration at 25 C. The note with it: protein: recombinant; chain copies: 2; blunt.

Data set [2] addresses T1, GR DBD wild type. Kind of data set: NMR (1D imino proton titration); G46 more broadened than with G/C; 25 C; EMSA: 20 mM Tris pH 7.5, 2 mM MgCl2, 1 mM EDTA, 10% glycerol, 0.3 mg/ml BSA, 4 mM DTT, 0.05 ug/ul dIdC, 1.25 nM DNA, 30 min; NMR: 20 mM Na phosphate, 100 mM NaCl, 1 mM DTT, pH 6.7, 5% D2O, imino titration at 25 C. Conditions: protein: recombinant; chain copies: 2; blunt.

Data set [3] deals with T1, GR DBD wild type. Briefly: NMR (15N-HSQC); EMSA: 20 mM Tris pH 7.5, 2 mM MgCl2, 1 mM EDTA, 10% glycerol, 0.3 mg/ml BSA, 4 mM DTT, 0.05 ug/ul dIdC, 1.25 nM DNA, 30 min; NMR: 20 mM Na phosphate, 100 mM NaCl, 1 mM DTT, pH 6.7, 5% D2O, imino titration at 25 C. Conditions: protein: recombinant; chain copies: 2; blunt. (In general: Mobility shift assays separate free from complexed probe on a gel.)

Data set [4] concerns the target GR DBD A477T (dim mutant) (rat, UniProt P06536 440-525, A477T). Kind of data set: EMSA; affinity lower than wild type; EMSA: 20 mM Tris pH 7.5, 2 mM MgCl2, 1 mM EDTA, 10% glycerol, 0.3 mg/ml BSA, 4 mM DTT, 0.05 ug/ul dIdC, 1.25 nM DNA, 30 min; NMR: 20 mM Na phosphate, 100 mM NaCl, 1 mM DTT, pH 6.7, 5% D2O, imino titration at 25 C. The note with it: protein: recombinant; chain copies: 2; label: Cy5 5' of strand 1; blunt.

For data set [5], the target named is T1, GR DBD wild type. Briefly: EMSA; value only in figure; similar Kd for A/T and G/C flanks; EMSA: 20 mM Tris pH 7.5, 2 mM MgCl2, 1 mM EDTA, 10% glycerol, 0.3 mg/ml BSA, 4 mM DTT, 0.05 ug/ul dIdC, 1.25 nM DNA, 30 min; NMR: 20 mM Na phosphate, 100 mM NaCl, 1 mM DTT, pH 6.7, 5% D2O, imino titration at 25 C. The note with it: protein: recombinant; chain copies: 2; label: Cy5 5' of strand 1; blunt.

In data set [6] the target is T1, GR DBD wild type. Briefly: EMSA; value only in figure; slightly higher affinity than A/T; EMSA: 20 mM Tris pH 7.5, 2 mM MgCl2, 1 mM EDTA, 10% glycerol, 0.3 mg/ml BSA, 4 mM DTT, 0.05 ug/ul dIdC, 1.25 nM DNA, 30 min; NMR: 20 mM Na phosphate, 100 mM NaCl, 1 mM DTT, pH 6.7, 5% D2O, imino titration at 25 C. Conditions: protein: recombinant; chain copies: 2; label: Cy5 5' of strand 1; blunt.

T1 sequence (P06536 440-525): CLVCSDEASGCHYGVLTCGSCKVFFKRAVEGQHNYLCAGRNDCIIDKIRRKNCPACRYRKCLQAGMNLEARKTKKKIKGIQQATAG
GR DBD A477T (dim mutant), sequence (P06536 440-525 A477T): as the sequence (P06536 440-525) above, with A38T counted along it

B1: Cgt G-C NMR (dsDNA)
DNA 1: GCCGAGAACATTTTGTACGCCTCG
DNA 2: CGAGGCGTACAAAATGTTCTCGGC
In the case of B1, the binding result in data set [1] is “binds”.

B2: Cgt A-T NMR (dsDNA)
DNA 1: GCCAAGAACATTTTGTACGTCTCG
DNA 2: CGAGACGTACAAAATGTTCTTGGC
For the molecule B2, the binding result in data set [2] was “binds”.

B3: Cgt A-C NMR (dsDNA)
DNA 1: GCCAAGAACATTTTGTACGCCTCG
DNA 2: CGAGGCGTACAAAATGTTCTTGGC
B3: the binding result in data set [3] is listed as “binds”.

B4: A-Cgt-T EMSA (dsDNA)
DNA 1: ACCAAGAACATTTTGTACGTCTC
DNA 2: GAGACGTACAAAATGTTCTTGGT
Turning to B4, the Kd in data set [4] came to 3.1 ± 0.4 µM. Besides, the binding result in data set [5] is recorded as “binds”.

B5: A-Sgk-T EMSA (dsDNA)
DNA 1: ACCAAGAACATTTTGTCCGTCTC
DNA 2: GAGACGGACAAAATGTTCTTGGT
On to B5, for which the binding result in data set [5] is listed as “binds”.

B6: G-Sgk-C EMSA (dsDNA)
DNA 1: ACCGAGAACATTTTGTCCGCCTC
DNA 2: GAGGCGGACAAAATGTTCTCGGT
For the molecule B6, the binding result in data set [5] is recorded as “binds”.

B7: G-Cgt-C EMSA (dsDNA)
DNA 1: ACCGAGAACATTTTGTACGCCTC
DNA 2: GAGGCGTACAAAATGTTCTCGGT
On to B7, for which, in data set [4], the Kd stood at 3.5 ± 1.1 µM. Moreover, the binding result in data set [6] is listed as “binds”.

The term Kd denotes the free concentration of one partner at which half of the binding sites on the other are occupied at equilibrium, for simple one-to-one binding.
